Test results reported in article PMC5137450.

Experiments:
Experiment in all cases: filter binding
MBNL3 [1] = molecular target: T1, MBNL3 (human, UniProt Q9NUK0 1-257)
T1 sequence: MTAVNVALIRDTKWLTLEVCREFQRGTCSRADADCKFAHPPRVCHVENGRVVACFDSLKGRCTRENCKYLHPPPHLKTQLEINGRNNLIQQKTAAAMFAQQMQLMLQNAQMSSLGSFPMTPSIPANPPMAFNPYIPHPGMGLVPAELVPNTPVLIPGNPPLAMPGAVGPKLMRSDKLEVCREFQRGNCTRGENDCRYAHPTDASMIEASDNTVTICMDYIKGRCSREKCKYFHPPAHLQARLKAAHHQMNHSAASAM

MBNL1 [2] = molecular target: T2, MBNL1 (UniProt Q9NR56 1-260)
T2 sequence: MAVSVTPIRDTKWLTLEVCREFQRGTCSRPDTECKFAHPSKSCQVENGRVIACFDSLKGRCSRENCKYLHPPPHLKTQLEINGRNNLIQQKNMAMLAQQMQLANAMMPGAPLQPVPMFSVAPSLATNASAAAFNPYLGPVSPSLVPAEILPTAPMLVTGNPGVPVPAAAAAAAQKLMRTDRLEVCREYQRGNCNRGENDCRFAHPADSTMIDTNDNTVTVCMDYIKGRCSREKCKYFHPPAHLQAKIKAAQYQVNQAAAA

MBNL2 [3] = molecular target: T3, MBNL2 (human, UniProt Q5VZF2 1-268)
T3 sequence: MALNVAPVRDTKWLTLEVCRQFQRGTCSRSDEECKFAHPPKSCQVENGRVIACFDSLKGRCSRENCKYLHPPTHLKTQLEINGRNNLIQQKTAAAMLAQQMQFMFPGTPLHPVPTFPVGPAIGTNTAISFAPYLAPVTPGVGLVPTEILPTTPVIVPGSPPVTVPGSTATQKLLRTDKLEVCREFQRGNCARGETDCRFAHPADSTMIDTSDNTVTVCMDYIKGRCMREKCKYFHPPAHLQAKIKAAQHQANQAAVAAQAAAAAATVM

MBNL3 [4] = molecular target: T1, MBNL3; remark: listed apart in the source
MBNL1 [5] = molecular target: T2, MBNL1; remark: listed apart in the source
MBNL2 [6] = molecular target: T3, MBNL2; remark: listed apart in the source

B1: Atp2a1 intron 22 RNA (145 nt) (structured_RNA)
RNA: GGGCACCCCUGCGGUCACUUGCGCGCGCUCGCAGCUCUCCCUGGAGCCACUGCUGCUGUUGCCACUGCCCGCUUCCACAUGAGGGCCAUGCCGUUACUGUGGGCACUGGCAGCUGUGAGGCUGUGUCCUGGCCGUCCAGUCUGCU
**Q.** Does B1 bind (MBNL3 [1])?
**A.** Result: binds

**Q.** Does B1 bind (MBNL1 [2])?
**A.** Result: binds

**Q.** Does B1 bind (MBNL2 [3])?
**A.** Result: binds

B2: (CUG)20 (structured_RNA)
RNA: CUGCUGCUGCUGCUGCUGCUGCUGCUGCUGCUGCUGCUGCUGCUGCUGCUGCUGCUGCUG
**Q.** How did the Kd (MBNL3 [4]) turn out when B2 was run?
**A.** The Kd was about 7.75 nM.

**Q.** And the Kd (MBNL1 [5])?
**A.** Its Kd is about 7.75 nM.

**Q.** What about the Kd (MBNL2 [6]) of the same binder?
**A.** Its Kd is about 7.75 nM.
